{"source": "patent US20190135921A1", "about": "“METHODS OF PREVENTING OR TREATING SLAMF7 POSITIVE AND SLAMF7 NEGATIVE CANCERS” (ADAERATA, LIMITED PARTNERSHIP, priority 2016, published 2019)", "molecules": {"B1": {"name": "FLAG-tagged version of mouse SLAMF7 (receptor, UniProt Q8BHK6 23-333, looked up)", "chain": "SGTLKKVAGALDGSVTFTLNITEIKVDYVVWTFNTFFLAMVKKDGVTSQSSNKERIVFPDGLYSMKLSQLKKNDSGAYRAEIYSTSSQASLIQEYVLHVYKHLSRPKVTIDRQSNKNGTCVINLTCSTDQDGENVTYSWKAVGQGDNQFHDGATLSIAWRSGEKDQALTCMARNPVSNSFSTPVFPQKLCEDAATDLTSLRGILYILCFSAVLILFAVLLTIFHTTWIKKGKGCEEDKKRVDRHQEMPDLCPHLEENADYDTIPYTEKRRPEEDAPNTFYSTVQIPKVVKSPSSLPAKPLVPRSLSFENVI", "notes": "whole, on cells; It was immunoprecipitated with anti-FLAG from RAW264.7 lysates; also called FLAG-SLAMF7; not shown: FLAG tag"}, "B2": {"name": "mouse CD64 (Fc receptor) (receptor, UniProt P26151 25-404, looked up)", "chain": "EVVNATKAVITLQPPWVSIFQKENVTLWCEGPHLPGDSSTQWFINGTAVQISTPSYSIPEASFQDSGEYRCQIGSSMPSDPVQLQIHNDWLLLQASRRVLTEGEPLALRCHGWKNKLVYNVVFYRNGKSFQFSSDSEVAILKTNLSHSGIYHCSGTGRHRYTSAGVSITVKELFTTPVLRASVSSPFPEGSLVTLNCETNLLLQRPGLQLHFSFYVGSKILEYRNTSSEYHIARAEREDAGFYWCEVATEDSSVLKRSPELELQVLGPQSSAPVWFHILFYLSVGIMFSLNTVLYVKIHRLQREKKYNLEVPLVSEQGKKANSFQQVRSDGVYEEVTATASQTTPKEAPDGPRSSVGDCGPEQPEPLPPSDSTGAQTSQS", "notes": "whole, on cells"}, "B3": {"name": "mouse CD16 (Fc receptor) (receptor, UniProt P08508 31-261, looked up)", "chain": "ALPKAVVKLDPPWIQVLKEDMVTLMCEGTHNPGNSSTQWFHNGRSIRSQVQASYTFKATVNDSGEYRCQMEQTRLSDPVDLGVISDWLLLQTPQRVFLEGETITLRCHSWRNKLLNRISFFHNEKSVRYHHYKSNFSIPKANHSHSGDYYCKGSLGSTQHQSKPVTITVQDPATTSSISLVWYHTAFSLVMCLLFAVDTGLYFYVRRNLQTPREYWRKSLSIRKHQAPQDK", "notes": "whole, on cells"}}, "key": {"[1]": {"test_system": "Colo205, SW480 and SW620 cells", "assay": "in vitro phagocytosis assay, mouse BMDMs with human non-hematopoietic tumor cells", "assay_type": "cell-based", "details": "BMDMs pretreated with LPS; FIG. 2R", "method": "In vitro phagocytosis assays. For the microscopy-based assay, 5×10^4 macrophages were seeded overnight in a 24-well tissue culture plate. On the next day, target cells were washed and labeled with 2.5 μM of carboxyfluorescein succinimidyl ester (CFSE), using the CFSE Cell Proliferation Kit (C34554; Life Technologies, Burlington, ON, Canada). After incubating macrophages in serum-free medium for 2 hours, 2×10^5 CFSE-labeled target cells were added to the macrophages, in the presence of anti-CD47 Ab or control IgG (10 μg/mL). After incubation for 2 hours at 37° C., macrophages were extensively washed and imaged with an inverted microscope (Carl Zeiss Axiovert™ S100 TV). The phagocytosis efficiency was calculated as the number of macrophages containing CFSE^+ target cells per 100 macrophages. […] Cells were then stained on ice for 30 minutes with APC conjugated-anti-human Tac (CD25) and PE-conjugated MAb F4/80, and analyzed by flow cytometry. After gating on F4/80^+Tac^− cells (which include macrophages but exclude non-phagocytosed Tac-positive L1210 cells), phagocytosis efficiency was determined as the percentage of F4/80^+Tac^− cells containing CFSE-derived green fluorescence (detected in FL1 channel). […] They were then stained with APC-conjugated anti-F4/80 and analyzed by flow cytometry. […] Phagocytosis was monitored by microscopy. […]"}, "[2]": {"test_system": "thymocytes", "assay": "induction of apoptotic thymocytes (annexin V)", "assay_type": "cell-based, mouse", "details": "1 μM, 10 hours, 37° C.; data not shown"}, "[3]": {"molecular_target": "T1, mouse CD11b (integrin alphaM, alpha subunit of Mac-1) (mouse, UniProt P05555 17-1153)", "T1 construct": "whole, on cells; Together with CD18 it constitutes Mac-1; Endogenous protein recovered from cell lysates; also called Mac-1 (CD11b); CR3 alpha subunit", "T1 sequence (P05555 17-1153)": "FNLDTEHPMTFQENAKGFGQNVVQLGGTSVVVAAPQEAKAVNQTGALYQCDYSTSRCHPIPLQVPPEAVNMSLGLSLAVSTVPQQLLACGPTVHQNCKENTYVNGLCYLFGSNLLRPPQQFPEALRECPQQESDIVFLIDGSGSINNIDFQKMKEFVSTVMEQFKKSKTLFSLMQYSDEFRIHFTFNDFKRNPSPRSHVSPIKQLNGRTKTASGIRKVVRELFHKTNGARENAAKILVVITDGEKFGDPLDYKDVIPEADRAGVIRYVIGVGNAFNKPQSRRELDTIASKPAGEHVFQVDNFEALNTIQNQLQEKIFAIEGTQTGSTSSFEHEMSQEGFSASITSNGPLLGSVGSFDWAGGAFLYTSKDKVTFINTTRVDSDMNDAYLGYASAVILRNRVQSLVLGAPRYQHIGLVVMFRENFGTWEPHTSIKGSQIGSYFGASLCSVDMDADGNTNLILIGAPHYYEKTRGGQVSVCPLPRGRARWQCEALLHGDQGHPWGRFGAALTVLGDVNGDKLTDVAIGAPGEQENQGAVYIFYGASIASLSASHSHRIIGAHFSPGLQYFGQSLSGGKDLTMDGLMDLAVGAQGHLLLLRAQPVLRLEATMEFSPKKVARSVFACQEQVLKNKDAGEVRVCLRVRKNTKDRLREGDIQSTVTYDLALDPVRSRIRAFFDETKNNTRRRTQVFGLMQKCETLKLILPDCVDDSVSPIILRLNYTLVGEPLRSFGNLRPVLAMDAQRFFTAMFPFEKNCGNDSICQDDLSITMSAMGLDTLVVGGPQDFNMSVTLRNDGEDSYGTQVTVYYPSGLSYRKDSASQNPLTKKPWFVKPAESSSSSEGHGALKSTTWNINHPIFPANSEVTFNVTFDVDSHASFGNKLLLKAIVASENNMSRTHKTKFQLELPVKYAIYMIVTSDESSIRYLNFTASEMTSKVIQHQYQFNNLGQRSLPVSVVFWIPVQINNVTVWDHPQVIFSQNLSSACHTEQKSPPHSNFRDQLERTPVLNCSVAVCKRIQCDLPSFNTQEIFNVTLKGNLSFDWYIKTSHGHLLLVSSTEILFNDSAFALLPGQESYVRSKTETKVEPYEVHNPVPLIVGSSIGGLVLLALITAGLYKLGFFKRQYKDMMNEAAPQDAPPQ", "assay": "anti-FLAG IP from RAW264.7 cells expressing FLAG-SLAMF7, anti-CD11b immunoblot; confocal co-localization", "method": "(§1) Authenticated cells. (FIG. 9D) Lysates from the mouse macrophage cell line RAW264.7 expressing GFP alone or in combination with a FLAG-tagged version of mouse SLAMF7 (FLAG-SLAMF7) were immunoprecipitated with anti-FLAG. They were then probed by immunoblotting with anti-CD11b (Mac-1) or anti-SLAMF7. Total cell lysates were analyzed in parallel. (FIG. 9E) Co-localization of SLAMF7 and CD11b in RAW264.7 cells expressing GFP alone or with FLAG-SLAMF7 assessed by immunofluorescence. Semi-confluent RAW264.7 cells expressing GFP alone (bottom) or in combination with FLAG-SLAMF7 (top) were fixed and stained with antibodies against FLAG, CD11b (Mac-1) or CD18, as detailed in Example 1. Staining was detected by confocal microscopy. Scale bar, 5 μm. […] (FIG. 9F) As in FIG. 9E, except that only RAW264.7 cells expressing FLAG-SLAMF7 were analyzed and that antibodies coupled to different fluorophores were used. […] (FIG. 9G-A and FIG. 9G-B) RAW264.7 derivatives expressing GFP alone or in combination with FLAG-SLAMF7 were analyzed by flow cytometry, using antibodies directed against FLAG and SLAMF7 (dotted lines). […]\n(§2) Immunoprecipitations, mass spectrometry, immunoblots. […] In brief, immunoprecipitated proteins were digested with trypsin (Promega, Madison, Wis.) and analyzed by LC-MS/MS on a LTQ Orbitrap™ Velos (ThermoFisher Scientific, Bremen, Germany) equipped with a Proxeon nanoelectrospray™ ion source. […]"}, "[4]": {"molecular_target": "T1, mouse CD11b (integrin alphaM, alpha …)", "assay": "anti-CD11b immunoprecipitation from WT and CD11b KO BMDM lysates, mass spectrometry", "method": "as §1, §2"}}, "data": [{"molecule": "lipopolysaccharide [LPS]", "values": [{"measurement": "phagocytosis of non-hematopoietic targets", "setting": "[1]", "result": "phagocytosis of non-hematopoietic targets was seen"}]}, {"molecule": "C[C@@H]1C[C@H]2[C@@H]3CCC4=CC(=O)C=C[C@]4(C)[C@@]3(F)[C@@H](O)C[C@]2(C)[C@@]1(O)C(=O)CO", "note": "[dexamethasone]", "values": [{"measurement": "cells becoming apoptotic (annexin V-positive)", "setting": "[2]", "result": "about 70%"}]}, {"molecule": "B1", "values": [{"measurement": "binding result", "setting": "[3]", "result": "binds"}]}, {"molecule": "B2", "values": [{"measurement": "binding result", "setting": "[4]", "result": "no binding"}]}, {"molecule": "B3", "values": [{"measurement": "binding result", "setting": "[4]", "result": "no binding"}]}]}
